Biological target: human serum albumin (HSA) (human), P02768
Assay: FP
Conditions: modification not given

Binder	Kd
AEGTGDFWFCDRIAWYAQHLCEFLDPEGGGK [DX-236 Ala mutant 120]	1300 nM
AEGTGDFWFCARIAWYPQHLCEFLDPEGGGK [DX-236 Ala mutant 125]	5000 nM
AEGTGDFWFCDRIAWYPAHLCEFLDPEGGGK [DX-236 Ala mutant 119]	2200 nM
AEGTGDFWFCDAIAWYPQHLCEFLDPEGGGK [DX-236 Ala mutant 124]	1500 nM
AEGTGDAWFCDRIAWYPQHLCEFLDPEGGGK [DX-236 Ala mutant 128]	5100 nM
AEGTGDFAFCDRIAWYPQHLCEFLDPEGGGK [DX-236 Ala mutant 127]	2300 nM
AEGTGDFWFCDRIAWAPQHLCEFLDPEGGGK [DX-236 Ala mutant 121]	1400 nM
AEGTGAFWFCDRIAWYPQHLCEFLDPEGGGK [DX-236 Ala mutant 129]	5100 nM
AEGTGDFWFCDRIAWYPQHACEFLDPEGGGK [DX-236 Ala mutant 117]	2000 nM
AEGTGDFWFCDRIAAYPQHLCEFLDPEGGGK [DX-236 Ala mutant 122]	1400 nM
